Our source for the Kd, binding result and FOB values is patent US20250026827A1 (Alector, published 2025).

Assay [1] addresses T1, human SIRPβ1 domain 1 (D1) Fc fusion (human, UniProt O00241 30-148).
T1 construct: Made in HEK293/T cells with a heterologous signal peptide; also called Human SIRPβ1 D1-Fc; Human SIRPβ1-Fc; not shown: C-terminal human IgG1 Fc
Briefly: Octet, IgG avid.

For a further assay, the target named is T2, mouse SIRPα D1-Fc (mouse, UniProt P97797 32-150, limits assumed).
T2 construct: domain: D1
T2 sequence (looked up): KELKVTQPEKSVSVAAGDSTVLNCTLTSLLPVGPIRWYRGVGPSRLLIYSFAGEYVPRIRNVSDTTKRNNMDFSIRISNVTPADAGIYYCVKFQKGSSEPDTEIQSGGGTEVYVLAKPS
Kind of assay: Octet.

The target of assay [2] is T3, human SIRPα domain 1 (D1) Fc fusion (human, UniProt P78324 32-149).
T3 construct: also called human SIRPα D1-Fc; Human SIRPα Fc; not shown: C-terminal human IgG1 Fc
Briefly: Octet.

The target of assay [3] is T4, human SIRPα on cells (human, UniProt P78324 31-504).
T4 construct: Whole entry
Kind of assay: flow cytometry.

Assay [4] concerns the target T5, mouse SIRPα on cells (mouse, UniProt P97797 32-513).
T5 construct: whole, on cells
T5 sequence (looked up): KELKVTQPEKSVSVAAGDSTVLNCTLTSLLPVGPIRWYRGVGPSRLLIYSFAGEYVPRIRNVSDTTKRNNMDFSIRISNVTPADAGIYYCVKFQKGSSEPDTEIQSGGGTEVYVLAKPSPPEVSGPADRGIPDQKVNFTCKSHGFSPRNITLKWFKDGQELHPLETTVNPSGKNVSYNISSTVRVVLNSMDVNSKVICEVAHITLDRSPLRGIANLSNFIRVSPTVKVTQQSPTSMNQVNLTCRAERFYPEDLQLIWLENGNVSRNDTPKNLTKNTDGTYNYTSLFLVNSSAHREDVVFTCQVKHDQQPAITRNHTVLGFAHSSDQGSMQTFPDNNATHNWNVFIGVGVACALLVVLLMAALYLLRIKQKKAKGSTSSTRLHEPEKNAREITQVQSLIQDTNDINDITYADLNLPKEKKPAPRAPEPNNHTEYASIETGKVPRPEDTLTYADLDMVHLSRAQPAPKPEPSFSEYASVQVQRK
Kind of assay: flow cytometry.

In assay [5] the target is T6, human SIRPβ1 isoform 1 on cells (human, UniProt O00241 30-398).
T6 construct: On CHO cells (low level), on BWZ/BW5147.G.1.4 cells (reporter cells co-express human DAP12) or on primary human myeloid cells; also called huSIRPβ1; BWZ-huSIRPβ1
T6 sequence (O00241 30-398): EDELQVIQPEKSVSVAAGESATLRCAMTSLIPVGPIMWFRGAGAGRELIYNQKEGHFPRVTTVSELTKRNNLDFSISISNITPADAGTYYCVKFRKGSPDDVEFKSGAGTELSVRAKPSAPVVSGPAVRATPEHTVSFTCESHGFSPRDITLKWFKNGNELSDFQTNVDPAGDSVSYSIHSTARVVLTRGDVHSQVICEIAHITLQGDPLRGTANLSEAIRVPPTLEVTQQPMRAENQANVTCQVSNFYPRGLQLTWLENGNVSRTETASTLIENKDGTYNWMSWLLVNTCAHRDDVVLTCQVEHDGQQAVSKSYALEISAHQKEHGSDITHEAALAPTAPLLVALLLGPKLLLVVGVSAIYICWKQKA
Briefly: flow cytometry.

Assay [6] addresses T7, mouse SIRPβ1 on CHO cells (mouse).
T7 construct: Whole entry
T7 chain: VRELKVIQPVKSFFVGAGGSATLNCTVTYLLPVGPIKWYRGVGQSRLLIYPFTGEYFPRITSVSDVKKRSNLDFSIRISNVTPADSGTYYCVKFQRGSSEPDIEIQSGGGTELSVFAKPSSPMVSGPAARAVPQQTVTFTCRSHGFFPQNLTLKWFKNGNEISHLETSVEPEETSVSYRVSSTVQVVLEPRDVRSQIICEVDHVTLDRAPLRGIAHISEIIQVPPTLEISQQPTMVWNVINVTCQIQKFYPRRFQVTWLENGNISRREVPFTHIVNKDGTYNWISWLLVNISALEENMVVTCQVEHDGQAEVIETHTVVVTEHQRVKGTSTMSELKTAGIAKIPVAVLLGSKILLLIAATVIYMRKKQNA
Briefly: flow cytometry.

The target in assay [7] is T4, human SIRPα on cells. Kind of assay: flow cytometry. This is another data set of the same source.
For assay [8], the target named is T5, mouse SIRPα on cells. Briefly: flow cytometry. This is another data set of the same source.
The target in assay [9] is T7, mouse SIRPβ1 on CHO cells. Kind of assay: flow cytometry.
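Throughout, for FOB: antibodies tested at 1 µg/ml for 30 min on ice against receptor-expressing cells, detected with a PE-labelled secondary antibody, read as mean fluorescence intensity relative to background.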

T1 sequence (O00241 30-148 limits assumed): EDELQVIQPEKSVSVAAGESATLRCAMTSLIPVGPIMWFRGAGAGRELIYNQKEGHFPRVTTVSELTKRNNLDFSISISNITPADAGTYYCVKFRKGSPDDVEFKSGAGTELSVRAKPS
Procedure for mouse SIRPα D1-Fc: Briefly, Octet affinity measurements were performed by loading IgGs on-line onto AHQ sensors. Sensors were equilibrated off-line in assay buffer for 30 min and then monitored on-line for 60 seconds for baseline establishment. For avid binding measurement, sensors with loaded IgGs were exposed to 100 nM antigen (human SIRPα domain 1 (D1) Fc fusion or SIRPβ1 domain 1 (D1) Fc fusion) for 3 min, and then transferred to assay buffer for 3 min for off-rate measurement. Additional avid binding was determined by loading biotinylated SIRPβ1 monomer on SA sensors and exposing to 100 nM IgG in solution. Monovalent binding measurements were obtained by loading human SIRPα- or SIRPβ1-Fc fusion antigens onto AHQ sensor, followed by exposure to 100 nM anti-SIRPβ1 antibody Fab. Additional monovalent measurements were made by loading biotinylated human SIRPα or SIRPβ1 monomer to SA sensor followed by exposure to 100 nM Fab in solution. Kinetics data were fit using a 1:1 binding model in the data analysis software provided by ForteBio (ForteBio Data Analysis Software 7.0).

B1: SB-31 (antibody, V domains shown)
VH: QVQLVQSGAEVKKPGASVKVSCKASGYTFTSYYMHWVRQAPGQGLEWMGIINPGGGSTSYAQKFQGRVTMTRDTSTSTVYMELSSLRSEDTAVYYCAREGLYSSGWYIDVWGQGTLVTVSS
VL: DIQMTQSPSSVSASVGDRVTITCRASQGISSWLAWYQQKPGKAPKLLIYAASSLQSGVPSRFSGSGSGTDFTLTISSLQPEDFATYYCQQAVSHPFTFGGGTKVEIK
notes: IgG
B1 returned a Kd in assay [1] of 3.75 nM. In addition, the binding result in the assay with mouse SIRPα D1-Fc was “no binding (tested: 100 nM)”; in assay [2], “no binding (tested: 100 nM)”; with human SIRPα on cells [7], “no binding (tested: 1 ug/ml)”; with mouse SIRPα on cells [8], “no binding (tested: 1 ug/ml)”; in [9] it was “no binding (tested: 1 ug/ml)”. Besides, the FOB with human SIRPα on cells [3] amounted to 1.8 fold over background; in the assay with mouse SIRPα on cells [4] it was 1 fold over background; in assay [5], 3.1 fold over background; in assay [6] it was 1.4 fold over background.

B2: SB-38 (antibody, V domains shown)
VH: QVQLVQSGAEVKKPGASVKVSCKASGYTFTSYYMHWVRQAPGQGLEWMGIINPSGGSTSYAQKFQGRVTMTRDTSTSTVYMELSSLRSEDTAVYYCARESGTDFGTISYWGQGTLVTVSS
VL: DIQMTQSPSSVSASVGDRVTITCRASQGISSWLAWYQQKPGKAPKLLIYAASSLQSGVPSRFSGSGSGTDFTLTISSLQPEDFATYYCQQAVSYPITFGGGTKVEIK
notes: IgG
Regarding B2, the Kd in assay [1] amounted to 7.33 nM. Moreover, the binding result was “no binding (tested: 100 nM)” with mouse SIRPα D1-Fc; “no binding (tested: 100 nM)” in [2]; “no binding (tested: 1 ug/ml)” with human SIRPα on cells [7]; “no binding (tested: 1 ug/ml)” in the assay with mouse SIRPα on cells [8]; “no binding (tested: 1 ug/ml)” in assay [9]. For the same molecule, the FOB with human SIRPα on cells [3] is 2.1 fold over background; with mouse SIRPα on cells [4], 1.1 fold over background; in assay [5], 1.5 fold over background; in assay [6] it was 1.3 fold over background.

B3: SB-11 (antibody, V domains shown)
VH: QVQLVQSGAEVKKPGSSVKVSCKASGGTFSNYAISWVRQAPGQGLEWMGGIIPIFGTANYAQKFQGRVTITADESTSTAYMELSSLRSEDTAVYYCARPVDSSSYSLGYYYGMDVWGKGTTVTVSS
VL: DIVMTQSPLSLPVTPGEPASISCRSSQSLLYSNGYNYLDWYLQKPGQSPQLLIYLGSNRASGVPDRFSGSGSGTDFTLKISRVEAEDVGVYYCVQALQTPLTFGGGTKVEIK
notes: IgG
B3 displayed a Kd in assay [1] of 3.69 nM. Besides, the binding result is “no binding (tested: 100 nM)” with mouse SIRPα D1-Fc; “no binding (tested: 100 nM)” in assay [2]; “no binding (tested: 1 ug/ml)” with human SIRPα on cells [7]; “no binding (tested: 1 ug/ml)” in the assay with mouse SIRPα on cells [8]; “no binding (tested: 1 ug/ml)” in [9]. Besides, the FOB with human SIRPα on cells [3] amounted to 2.3 fold over background; with mouse SIRPα on cells [4] it was 0.9 fold over background; in assay [5], 6.3 fold over background; in assay [6], 1.2 fold over background.

B4: SB-12 (antibody, V domains shown)
VH: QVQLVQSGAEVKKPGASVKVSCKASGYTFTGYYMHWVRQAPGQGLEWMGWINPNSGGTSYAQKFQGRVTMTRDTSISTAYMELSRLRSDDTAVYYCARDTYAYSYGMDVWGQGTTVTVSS
VL: EIVMTQSPATLSVSPGERATLSCRASQSVSSNLAWYQQKPGQAPRLLIYSASTRATGIPARFSGSGSGTEFTLTISSLQSEDFAVYYCQQLDNLPYTFGGGTKVEIK
notes: IgG
For the molecule B4, in assay [1], the Kd came out at 4.94 nM. The binding result is listed as “no binding (tested: 100 nM)” with mouse SIRPα D1-Fc; “no binding (tested: 100 nM)” in assay [2]; “no binding (tested: 1 ug/ml)” with human SIRPα on cells [7]; “no binding (tested: 1 ug/ml)” with mouse SIRPα on cells [8]; “no binding (tested: 1 ug/ml)” in assay [9]. Moreover, the FOB stood at 2 fold over background with human SIRPα on cells [3], 1.2 fold over background with mouse SIRPα on cells [4], 1.6 fold over background in assay [5] and 1.3 fold over background in assay [6].

B5: SB-35 (antibody, V domains shown)
VH: QVQLVQSGAEVKKPGSSVKVSCKASGGTFSSYAISWVRQAPGQGLEWMGGIIPIFGTANYAQKFQGRVTITADESTSTAYMELSSLRSEDTAVYYCARGRPQSESYLLDYWGQGTLVTVSS
VL: not shown
notes: IgG
Molecule B5 yielded a dissociation constant Kd in assay [1] of 7.47 nM. Further, the binding result with mouse SIRPα D1-Fc is “no binding (tested: 100 nM)”; in assay [2], “no binding (tested: 100 nM)”; with human SIRPα on cells [7] it was “no binding (tested: 1 ug/ml)”; with mouse SIRPα on cells [8], “no binding (tested: 1 ug/ml)”; in assay [9] it was “no binding (tested: 1 ug/ml)”. The FOB amounted to 2.6 fold over background in the assay with human SIRPα on cells [3], 1 fold over background in the assay with mouse SIRPα on cells [4], 2.1 fold over background in assay [5] and 1.1 fold over background in [6].

B6: SB-33 (antibody, V domains shown)
VH: EVQLVESGGGLVQPGGSLRLSCAASGFTVSSNYMSWVRQAPGKGLEWVSVIYSGGSTYYADSVKGRFTISRDNSKNTLYLQMNSLRAEDTAVYYCARGQYTGSLDVWGQGTMVTVSS
VL: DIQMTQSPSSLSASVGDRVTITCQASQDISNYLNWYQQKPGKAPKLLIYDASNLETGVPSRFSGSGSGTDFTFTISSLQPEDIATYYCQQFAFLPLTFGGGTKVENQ
notes: IgG
B6: binding in assay [1] was characterised by a dissociation constant (Kd) of 9.23 nM. For the same molecule, the binding result is on record as “no binding (tested: 100 nM)” in the assay with mouse SIRPα D1-Fc; “no binding (tested: 100 nM)” in [2]; “no binding (tested: 1 ug/ml)” with human SIRPα on cells [7]; “no binding (tested: 1 ug/ml)” with mouse SIRPα on cells [8]; “no binding (tested: 1 ug/ml)” in assay [9]. Besides, the FOB with human SIRPα on cells [3] was 2.2 fold over background; in the assay with mouse SIRPα on cells [4], 1.4 fold over background; in [5], 1.4 fold over background; in assay [6] it was 1.3 fold over background.

B7: SB-9 (antibody, V domains shown)
VH: QVQLVQSGAEVKKPGASVKVSCKASGYTFTSYGIHWVRQAPGQGLEWMGWISAYNGNTNYAQKLQGRVTMTTDTSTSTAYMELRSLRSDDTAVYYCARDGLHYGDYIVYYGMDVWGQGTTVTVSS
VL: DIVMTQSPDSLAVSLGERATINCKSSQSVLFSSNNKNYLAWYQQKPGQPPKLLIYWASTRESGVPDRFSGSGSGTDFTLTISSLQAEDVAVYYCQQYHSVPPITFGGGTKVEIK
notes: IgG
In [1], B7 gave a Kd of 3.66 nM. The binding result with mouse SIRPα D1-Fc is reported as “no binding (tested: 100 nM)”; in assay [2], “no binding (tested: 100 nM)”; with human SIRPα on cells [7], “no binding (tested: 1 ug/ml)”; with mouse SIRPα on cells [8], “no binding (tested: 1 ug/ml)”; in assay [9] it was “no binding (tested: 1 ug/ml)”. In addition, the FOB came out at 2.1 fold over background in the assay with human SIRPα on cells [3], 0.8 fold over background with mouse SIRPα on cells [4], 1.8 fold over background in assay [5] and 1 fold over background in [6].

B8: SB-37 (antibody, V domains shown)
VH: QVQLVQSGAEVKKPGSSVKVSCKASGGTFSNYAISWVRQAPGQGLEWMGGIIPIFGTANYAQKFQGRVTITADESTSTAYMELSSLRSEDTAVYYCARSRWGASGYYYYMDVWGQGTMVTVSS
VL: EIVLTQSPATLSLSPGERATLSCRASQSVSSYLAWYQQKPGQAPRLLIYDASNRATGIPARFSGSGSGTDFTLTISSLEPEDFAVYYCQQRHTYPLTFGGGTKVEIK
notes: IgG
The molecule B8 gave a Kd in assay [1] of 7.5 nM. Moreover, the binding result in the assay with mouse SIRPα D1-Fc is given as “no binding (tested: 100 nM)”; in assay [2], “no binding (tested: 100 nM)”; with human SIRPα on cells [7] it was “no binding (tested: 1 ug/ml)”; with mouse SIRPα on cells [8], “no binding (tested: 1 ug/ml)”; in assay [9] it was “no binding (tested: 1 ug/ml)”. Moreover, the FOB is 2.2 fold over background in the assay with human SIRPα on cells [3], 1 fold over background in the assay with mouse SIRPα on cells [4], 3.8 fold over background in assay [5] and 1.2 fold over background in [6].

B9: SB-42 (antibody, V domains shown)
VH: QVQLVQSGAEVKKPGASVKVSCKASGYTFTSYGISWVRQAPGQGLEWMGWISAYNGNTNYAQKLQGRVTMTTDTSTSTAYMELRSLRSDDTAVYYCARGPGHYYVAGMDVWGQGTTVTVSS
VL: EIVMTQSPATLSVSPGERATITCRASQSISSYLNWYQQKPGKAPKLLIYSASSLQSGVPSRFSGSGSGTDFTLTISSLQPEDFATYYCQQGDSFPITFGGGTKVEIK
notes: IgG
Take B9: the Kd in assay [1] was 12.3 nM. Further, the binding result with mouse SIRPα D1-Fc is “no binding (tested: 100 nM)”; in assay [2], “no binding (tested: 100 nM)”; in the assay with human SIRPα on cells [7] it was “no binding (tested: 1 ug/ml)”; with mouse SIRPα on cells [8], “no binding (tested: 1 ug/ml)”; in [9], “no binding (tested: 1 ug/ml)”. Further, the FOB in the assay with human SIRPα on cells [3] was 2.7 fold over background; with mouse SIRPα on cells [4], 1.2 fold over background; in assay [5], 3.3 fold over background; in assay [6] it was 1.2 fold over background.
